Laboratory results published in patent publication US20220235136A1, “METHODS AND COMPOSITIONS FOR TREATING A DISEASE OR DISORDER” (YALE UNIVERSITY, priority 2019, published 2022).

Target: T1, CD93 (Homo sapiens, UniProt Q9NPY3)
T1 construct: expressed in transfected cells; host or cells: 293 cells (CD93+ 293)
T1 sequence (Q9NPY3 22-652): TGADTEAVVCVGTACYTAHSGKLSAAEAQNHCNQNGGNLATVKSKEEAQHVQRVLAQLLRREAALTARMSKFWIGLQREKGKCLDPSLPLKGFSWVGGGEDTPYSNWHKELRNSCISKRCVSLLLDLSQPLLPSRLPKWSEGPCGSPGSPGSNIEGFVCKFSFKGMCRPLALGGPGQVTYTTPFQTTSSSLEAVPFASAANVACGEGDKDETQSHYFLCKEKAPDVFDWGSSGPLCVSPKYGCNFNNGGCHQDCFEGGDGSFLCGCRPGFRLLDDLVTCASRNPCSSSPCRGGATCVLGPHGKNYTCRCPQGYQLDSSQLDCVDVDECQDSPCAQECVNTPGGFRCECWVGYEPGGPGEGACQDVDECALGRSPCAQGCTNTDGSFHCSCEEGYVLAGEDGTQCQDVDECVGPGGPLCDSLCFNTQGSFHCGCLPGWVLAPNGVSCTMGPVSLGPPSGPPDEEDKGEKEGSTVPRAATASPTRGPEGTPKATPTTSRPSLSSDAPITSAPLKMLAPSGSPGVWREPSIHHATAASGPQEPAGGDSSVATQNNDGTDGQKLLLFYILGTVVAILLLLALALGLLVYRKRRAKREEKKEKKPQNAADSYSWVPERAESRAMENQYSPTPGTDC
Assay: binding of Ig fusion proteins to CD93 transfectant (flow cytometry)
Conditions: flow cytometry
Text: FIGS. 10A-10B show identification of the binding domain on IGFBP7 for CD93. Each extracellular domain for IGFBP7, including insulin binding (IB). Kazal, and Ig, was swapped with the corresponding domain on IGFBPL1 using PCR cloning and fused to a C-terminal Ig. These chimeric mutants were transiently expressed in HEK293T cells and supernatants were used to stain CD93 transfectant. FIG. 10A depicts whether multiple chimeric IGFBP7 mutants bind to CD93. FIG. 10B depicts various human genes containing IB-domain constructed onto an expression vector containing Fc-Tag. Constructs were transiently transduced into HEK293T cells to produce Fc tagged fusion proteins in the supernatant. Supernatant was used to stain CD93 transfectant by flow cytometry. Binding index represents the ratio of binding MFI of CD93 transfectant to control cells.
The IGFBP7-IGFBPL1 chimeras were generated by two-step PCR. […]
Cell surface and intercellular staining and analysis by flow cytometry were followed the protocol previously described (71). Dead cells were excluded with SYTOX® (Blue Dead Cell Stain Kit (Thermo Fisher Scientific). Flow cytometric analysis was conducted with a BD FACS Calibur or a BD LSRFortessa™ cell analyzer (BD Bioscience, Franklin Lakes, N.J. USA), and then data were analyzed by FlowJo software (Tree Star Inc.)

B1: IGFBPL1: a IGFBP-related protein that does not bind CD93 (protein, UniProt Q8WX77 26-278, looked up)
Insulin-like growth …: LGIRDVGGRRPKCGPCRPEGCPAPAPCPAPGISALDECGCCARCLGAEGASCGGRAGGRCGPGLVCASQAAGAAPEGTGLCVCAQRGTVCGSDGRSYPSVCALRLRARHTPRAHPGHLHKARDGPCEFAPVVVVPPRSVHNVTGAQVGLSCEVRAVPTPVITWRKVTKSPEGTQALEELPGDHVNIAVQVRGGPSDHEATAWILINPLRKEDEGVYQCHAANMVGEAESHSTVTVLDLSKYRSFHFPAPDDRM
**Q.** How did the “binding to CD93 293 cells / CD93 transfectant” value turn out when B1 was run?
**A.** The value was “does not bind”.
